Assay results reported in the supplement of paper PMC10065799, “High-throughput profiling of sequence recognition by tyrosine kinases and SH2 domains using bacterial peptide display” (eLife, 2023).

Assays:
[1] = system: AncSZ; assay: phosphorylation enrichment, bacterial display (enrichment ratio); higher = better substrate or ligand; peptides without Tyr show the background
[2] = target: EPHB1 (UniProt P54762); assay: as above
[3] = target: EPHB2 (UniProt P29323); assay: as above
[4] = target: FGFR1 (UniProt P11362); assay: as above
[5] = target: FGFR3 (UniProt P22607); assay: as above
Sequence of FGFR3 (P22607 whole entry, looked up): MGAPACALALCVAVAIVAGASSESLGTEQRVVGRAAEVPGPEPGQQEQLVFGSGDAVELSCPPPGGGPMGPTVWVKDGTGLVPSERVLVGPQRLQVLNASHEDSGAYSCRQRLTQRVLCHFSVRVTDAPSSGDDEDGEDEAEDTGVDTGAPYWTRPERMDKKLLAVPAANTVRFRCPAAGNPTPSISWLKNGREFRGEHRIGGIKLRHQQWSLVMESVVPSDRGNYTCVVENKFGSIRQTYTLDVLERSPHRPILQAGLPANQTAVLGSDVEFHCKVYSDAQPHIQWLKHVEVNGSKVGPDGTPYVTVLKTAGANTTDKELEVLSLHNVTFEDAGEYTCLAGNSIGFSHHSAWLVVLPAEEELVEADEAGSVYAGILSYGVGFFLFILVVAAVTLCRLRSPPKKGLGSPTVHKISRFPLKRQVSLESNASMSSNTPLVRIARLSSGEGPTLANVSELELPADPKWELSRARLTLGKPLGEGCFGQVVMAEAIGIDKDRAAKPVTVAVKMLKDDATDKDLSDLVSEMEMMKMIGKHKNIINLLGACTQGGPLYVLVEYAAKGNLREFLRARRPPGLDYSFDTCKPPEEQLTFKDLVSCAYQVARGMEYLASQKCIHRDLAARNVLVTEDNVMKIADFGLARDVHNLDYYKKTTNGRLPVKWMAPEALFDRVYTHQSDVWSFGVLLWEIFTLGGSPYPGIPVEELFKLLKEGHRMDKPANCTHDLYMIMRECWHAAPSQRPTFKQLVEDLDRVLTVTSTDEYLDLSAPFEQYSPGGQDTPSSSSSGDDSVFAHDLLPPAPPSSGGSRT

[6] = system: Fer (mouse); assay: as above
[7] = target: Fes (UniProt P07332); assay: as above
Sequence of Fes (P07332 whole entry, looked up): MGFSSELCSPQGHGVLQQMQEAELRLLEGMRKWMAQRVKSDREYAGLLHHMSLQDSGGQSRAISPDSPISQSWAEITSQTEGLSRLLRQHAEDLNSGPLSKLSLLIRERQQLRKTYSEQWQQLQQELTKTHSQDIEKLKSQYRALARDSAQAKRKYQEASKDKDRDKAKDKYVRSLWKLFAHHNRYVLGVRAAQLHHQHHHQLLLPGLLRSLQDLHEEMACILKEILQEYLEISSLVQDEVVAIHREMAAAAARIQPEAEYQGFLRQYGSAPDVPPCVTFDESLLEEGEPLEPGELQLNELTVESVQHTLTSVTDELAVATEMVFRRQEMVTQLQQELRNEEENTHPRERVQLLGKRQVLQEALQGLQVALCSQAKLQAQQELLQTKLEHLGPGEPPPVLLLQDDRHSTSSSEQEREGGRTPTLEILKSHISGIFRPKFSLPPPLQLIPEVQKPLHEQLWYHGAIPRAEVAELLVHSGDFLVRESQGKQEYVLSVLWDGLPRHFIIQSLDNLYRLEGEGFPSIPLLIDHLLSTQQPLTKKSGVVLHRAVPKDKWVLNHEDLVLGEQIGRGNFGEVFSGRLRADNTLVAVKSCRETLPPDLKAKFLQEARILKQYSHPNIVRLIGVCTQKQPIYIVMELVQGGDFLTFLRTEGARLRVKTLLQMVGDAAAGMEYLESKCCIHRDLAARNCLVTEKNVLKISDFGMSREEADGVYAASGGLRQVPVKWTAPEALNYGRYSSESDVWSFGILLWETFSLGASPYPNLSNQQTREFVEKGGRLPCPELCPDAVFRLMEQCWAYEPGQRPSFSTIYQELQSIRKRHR

[8] = target: Fyn (UniProt P06241); assay: as above
[9] = target: Hck (UniProt P08631); assay: as above
[10] = target: Jak2 (UniProt O60674); assay: as above
Sequence of Jak2 (O60674 whole entry, looked up): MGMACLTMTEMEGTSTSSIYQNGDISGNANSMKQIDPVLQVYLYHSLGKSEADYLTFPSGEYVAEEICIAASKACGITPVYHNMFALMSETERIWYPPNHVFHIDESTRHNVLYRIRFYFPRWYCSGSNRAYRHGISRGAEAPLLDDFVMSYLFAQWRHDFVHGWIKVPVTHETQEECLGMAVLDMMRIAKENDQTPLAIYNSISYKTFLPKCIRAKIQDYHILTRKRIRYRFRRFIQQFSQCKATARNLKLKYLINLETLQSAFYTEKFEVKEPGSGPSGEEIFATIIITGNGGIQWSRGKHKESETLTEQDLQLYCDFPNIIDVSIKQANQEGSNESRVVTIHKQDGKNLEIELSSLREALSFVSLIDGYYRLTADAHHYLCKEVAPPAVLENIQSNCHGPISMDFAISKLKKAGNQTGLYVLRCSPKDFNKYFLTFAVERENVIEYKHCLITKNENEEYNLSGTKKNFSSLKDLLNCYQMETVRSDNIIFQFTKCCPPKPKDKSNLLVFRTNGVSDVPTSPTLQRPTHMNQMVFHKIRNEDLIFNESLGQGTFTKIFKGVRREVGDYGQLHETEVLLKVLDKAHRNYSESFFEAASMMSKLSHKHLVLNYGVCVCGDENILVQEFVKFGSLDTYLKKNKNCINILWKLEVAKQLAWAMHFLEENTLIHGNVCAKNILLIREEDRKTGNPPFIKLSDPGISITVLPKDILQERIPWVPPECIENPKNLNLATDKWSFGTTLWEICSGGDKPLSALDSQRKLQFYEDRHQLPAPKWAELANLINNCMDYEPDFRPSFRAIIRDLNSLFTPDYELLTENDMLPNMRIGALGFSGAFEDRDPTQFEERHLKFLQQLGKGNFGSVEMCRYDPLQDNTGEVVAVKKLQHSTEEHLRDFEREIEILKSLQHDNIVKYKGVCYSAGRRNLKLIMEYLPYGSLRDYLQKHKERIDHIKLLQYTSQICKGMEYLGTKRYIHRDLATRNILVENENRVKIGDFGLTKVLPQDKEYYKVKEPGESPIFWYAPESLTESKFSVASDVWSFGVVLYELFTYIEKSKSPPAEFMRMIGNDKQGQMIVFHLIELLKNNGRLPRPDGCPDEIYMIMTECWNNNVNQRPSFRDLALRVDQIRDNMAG

[11] = target: MERTK (UniProt Q12866); assay: as above
[12] = system: c-Abl (mouse); assay: as above
[13] = system: c-Src; assay: as above
[14] = target: Grb2 SH2 (UniProt P62993); assay: SH2 binding enrichment of the phosphorylated peptide, bacterial display (enrichment ratio); higher = better substrate or ligand; peptides without Tyr show the background
Sequence of Grb2 SH2 (P62993 whole entry, looked up): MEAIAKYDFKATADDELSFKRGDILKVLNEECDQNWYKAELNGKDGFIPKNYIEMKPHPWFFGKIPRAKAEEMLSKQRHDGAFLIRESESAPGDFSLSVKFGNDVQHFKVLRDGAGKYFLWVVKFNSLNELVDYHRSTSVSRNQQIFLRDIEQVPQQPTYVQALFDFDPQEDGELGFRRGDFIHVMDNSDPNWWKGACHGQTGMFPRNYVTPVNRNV

[15] = target: SHP2-C SH2; assay: as above
[16] = target: c-Src SH2; assay: as above
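Wherever SH2 binding enrichment of the phosphorylated peptide, bacterial display is given: peptide library displayed on the E. coli surface as eCPX fusions, selected cells deep-sequenced, score is each peptide's frequency after selection divided by its frequency in the input.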
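Wherever phosphorylation enrichment, bacterial display is given: 11-residue human phosphosite peptides and single-mutation variants displayed on the E. coli surface, counted by deep sequencing, each peptide's frequency after selection divided by its frequency in the unselected input library; frequency after pTyr selection over input frequency; kinase dosed for 20-30% of maximal phosphorylation in three min.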

Sequence of EPHB2 (P29323 whole entry, looked up): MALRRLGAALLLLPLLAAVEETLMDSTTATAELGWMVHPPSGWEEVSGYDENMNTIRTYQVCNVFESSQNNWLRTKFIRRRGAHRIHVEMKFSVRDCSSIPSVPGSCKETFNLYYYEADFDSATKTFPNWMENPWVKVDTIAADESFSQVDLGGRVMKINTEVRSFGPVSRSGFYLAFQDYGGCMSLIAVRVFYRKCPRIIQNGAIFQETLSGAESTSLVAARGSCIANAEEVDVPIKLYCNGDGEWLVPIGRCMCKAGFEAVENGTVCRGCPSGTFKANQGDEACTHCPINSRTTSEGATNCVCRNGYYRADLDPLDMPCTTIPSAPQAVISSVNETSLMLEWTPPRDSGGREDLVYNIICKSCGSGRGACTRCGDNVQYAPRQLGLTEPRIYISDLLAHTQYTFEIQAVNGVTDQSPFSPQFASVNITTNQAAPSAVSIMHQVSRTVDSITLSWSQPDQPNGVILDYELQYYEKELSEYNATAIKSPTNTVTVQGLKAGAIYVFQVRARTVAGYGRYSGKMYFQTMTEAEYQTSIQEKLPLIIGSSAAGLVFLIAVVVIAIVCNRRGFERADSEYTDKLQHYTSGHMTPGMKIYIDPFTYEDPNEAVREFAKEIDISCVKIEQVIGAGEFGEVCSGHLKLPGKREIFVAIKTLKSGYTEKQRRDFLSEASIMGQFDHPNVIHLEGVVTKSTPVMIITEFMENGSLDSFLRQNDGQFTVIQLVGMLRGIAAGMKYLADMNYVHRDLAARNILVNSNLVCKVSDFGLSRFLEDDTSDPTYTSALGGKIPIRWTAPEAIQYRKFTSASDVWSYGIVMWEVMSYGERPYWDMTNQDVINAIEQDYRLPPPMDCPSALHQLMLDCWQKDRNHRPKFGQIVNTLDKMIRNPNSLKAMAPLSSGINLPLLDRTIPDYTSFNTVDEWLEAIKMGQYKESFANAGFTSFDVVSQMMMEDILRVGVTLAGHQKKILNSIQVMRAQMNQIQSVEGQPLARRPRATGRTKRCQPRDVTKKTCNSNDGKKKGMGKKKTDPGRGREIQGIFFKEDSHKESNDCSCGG
Sequence of EPHB1 (P54762 whole entry, looked up): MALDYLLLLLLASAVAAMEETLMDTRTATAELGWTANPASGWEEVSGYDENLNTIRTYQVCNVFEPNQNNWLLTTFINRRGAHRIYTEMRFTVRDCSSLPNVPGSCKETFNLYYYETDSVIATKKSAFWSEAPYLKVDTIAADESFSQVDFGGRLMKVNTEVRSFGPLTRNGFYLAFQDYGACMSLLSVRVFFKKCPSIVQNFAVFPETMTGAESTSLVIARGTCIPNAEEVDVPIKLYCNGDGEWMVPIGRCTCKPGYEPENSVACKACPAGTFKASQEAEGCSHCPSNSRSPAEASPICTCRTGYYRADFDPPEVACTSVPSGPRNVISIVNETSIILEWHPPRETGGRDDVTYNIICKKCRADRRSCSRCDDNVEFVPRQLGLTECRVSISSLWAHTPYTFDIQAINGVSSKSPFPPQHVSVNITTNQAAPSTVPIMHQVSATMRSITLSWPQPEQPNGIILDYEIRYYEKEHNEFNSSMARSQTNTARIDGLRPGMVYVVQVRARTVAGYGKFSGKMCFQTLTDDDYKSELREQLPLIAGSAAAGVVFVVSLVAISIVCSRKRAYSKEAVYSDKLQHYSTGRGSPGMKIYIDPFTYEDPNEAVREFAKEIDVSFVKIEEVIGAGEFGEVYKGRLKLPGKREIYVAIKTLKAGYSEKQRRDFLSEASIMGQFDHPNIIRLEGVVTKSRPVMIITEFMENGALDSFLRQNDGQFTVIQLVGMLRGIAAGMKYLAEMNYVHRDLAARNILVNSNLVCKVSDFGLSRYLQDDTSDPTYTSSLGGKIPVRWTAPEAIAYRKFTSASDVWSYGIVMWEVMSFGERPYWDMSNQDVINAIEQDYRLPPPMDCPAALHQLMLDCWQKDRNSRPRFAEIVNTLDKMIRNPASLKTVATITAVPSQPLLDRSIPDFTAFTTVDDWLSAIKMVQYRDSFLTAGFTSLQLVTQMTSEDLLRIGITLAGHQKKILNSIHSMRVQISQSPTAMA

Sequence | phosphorylation enrichment [1] | phosphorylation enrichment [2] | phosphorylation enrichment [3] | phosphorylation enrichment [4] | phosphorylation enrichment [5] | phosphorylation enrichment [6] | phosphorylation enrichment [7] | phosphorylation enrichment [8] | phosphorylation enrichment [9] | phosphorylation enrichment [10] | phosphorylation enrichment [11] | phosphorylation enrichment [12] | phosphorylation enrichment [13] | SH2 binding enrichment [14] | SH2 binding enrichment [15] | SH2 binding enrichment [16]
LYVDVYGPSVP [NUBPL_Y109_D105Y] | 1.48 | 3.63 | 1.09 | 2.8 | 2.02 | 2.21 | 1.32 | 2.02 | 2.85 | 0.977 | 2.27 | 0.902 | 2.15 | 0.705 | 0.695 | 0.578
MANFMYKAGPS [MAML2_Y515_YF] | 0.947 | 0.367 | 0.525 | 0.378 | 0.44 | 0.386 | 0.68 | 0.383 | 0.39 | 0.739 | 0.339 | 0.534 | 0.41 | 1.03 | 0.838 | 0.593
MARDIYRASFF [ALK_Y1278_YF] | 0.67 | 0.425 | 0.434 | 0.435 | 0.449 | 0.375 | 0.797 | 0.566 | 0.661 | 0.608 | 0.472 | 3.1 | 0.597 | 0.843 | 0.76 | 0.52
MCDKEYFSVHN [MET_Y1234_Y1230C_YF] | 1.31 | 0.692 | 0.482 | 1.78 | 1.47 | 0.506 | 0.866 | 0.505 | 0.453 | 1.11 | 0.404 | 0.586 | 0.576 | 1.15 | 1.01 | 0.696
MCITQYERESQ [PRNP_Y218] | 0.837 | 0.419 | 0.495 | 0.491 | 0.557 | 0.453 | 0.895 | 0.496 | 0.447 | 0.654 | 0.485 | 0.648 | 0.394 | 0.935 | 0.632 | 0.591
MDDKEYFSVHN [MET_Y1234_Y1230D_YF] | 1.43 | 0.492 | 0.587 | 0.743 | 0.919 | 0.434 | 1.03 | 0.411 | 0.452 | 1.02 | 0.447 | 0.757 | 0.435 | 0.808 | 0.443 | 0.442
MDQAEYQAKIQ [DHX58_Y518_R523Q] | 0.99 | 0.563 | 0.7 | 0.625 | 0.685 | 0.864 | 1.05 | 0.464 | 0.555 | 0.743 | 0.519 | 0.726 | 0.556 | 0.744 | 0.424 | 0.412
MEIHAYLKLLE [LMNA_Y376_R377L] | 1.33 | 0.859 | 0.708 | 0.517 | 0.959 | 0.587 | 1.8 | 0.521 | 0.574 | 1.62 | 0.48 | 1.24 | 0.569 | 0.842 | 0.714 | 0.732
METKGYHSLPE [NR3C2_Y6] | 0.696 | 0.48 | 0.367 | 0.434 | 0.563 | 0.399 | 1.01 | 0.287 | 0.377 | 0.804 | 0.515 | 0.704 | 0.446 | 0.786 | 0.475 | 0.769
MFNPMYALFRT [HUWE1_Y4078] | 0.946 | 1.42 | 0.693 | 0.545 | 0.676 | 4.26 | 0.905 | 4.28 | 4.67 | 0.827 | 6.9 | 1.19 | 5.38 | 1.09 | 1.1 | 0.811
MFQVQYNSSVD [LRFN1_Y458_YF] | 0.859 | 0.486 | 0.432 | 0.425 | 0.581 | 0.514 | 0.86 | 0.394 | 0.436 | 0.771 | 0.398 | 0.566 | 0.373 | 0.776 | 0.548 | 0.515
MGGSVYFSYPD [HIKESHI_Y55] | 1.02 | 0.728 | 0.815 | 1.49 | 1.41 | 0.401 | 1.07 | 3.16 | 1.65 | 1.09 | 1.36 | 0.752 | 3.42 | 0.978 | 1.94 | 0.843
MGSFNYLGFAR [SPTLC2_Y178_YF] | 0.63 | 0.942 | 0.493 | 0.504 | 0.603 | 0.431 | 0.661 | 0.439 | 0.485 | 1.15 | 0.443 | 0.521 | 0.535 | 1.05 | 1.58 | 0.59
MGSFNYLGFPR [SPTLC2_Y178_A182P_YF] | 0.795 | 1.88 | 0.917 | 0.566 | 0.534 | 0.418 | 0.983 | 0.44 | 0.403 | 1.68 | 0.518 | 0.584 | 0.615 | 0.862 | 1.03 | 0.865
MKGDYYRSLAE [YWHAG_Y131_Y133S] | 1.1 | 0.422 | 0.508 | 0.96 | 0.742 | 0.426 | 0.738 | 0.466 | 0.427 | 1.14 | 0.44 | 0.463 | 0.428 | 0.813 | 0.625 | 0.415
MKGDYYRYLAE [YWHAG_Y131] | 1.07 | 1.09 | 1.02 | 8.62 | 6.43 | 0.501 | 0.89 | 0.741 | 0.779 | 3.29 | 0.718 | 0.686 | 0.639 | 0.815 | 0.568 | 0.615
MKKQKYGRIIM [HSD17B4_Y143] | 0.497 | 0.551 | 0.531 | 0.517 | 0.971 | 0.565 | 0.89 | 0.443 | 0.396 | 0.998 | 0.499 | 0.771 | 0.422 | 1.91 | 1.55 | 1.54

Sequence | phosphorylation enrichment [1] | phosphorylation enrichment [2] | phosphorylation enrichment [3] | phosphorylation enrichment [4] | phosphorylation enrichment [5] | phosphorylation enrichment [6] | phosphorylation enrichment [7] | phosphorylation enrichment [8] | phosphorylation enrichment [9] | phosphorylation enrichment [10] | phosphorylation enrichment [11] | phosphorylation enrichment [12] | phosphorylation enrichment [13] | SH2 binding enrichment [14] | SH2 binding enrichment [15] | SH2 binding enrichment [16]
MLEVSYVDRNS [F10_Y384_P383S] | 0.651 | 0.48 | 0.528 | 0.441 | 0.519 | 0.439 | 0.758 | 0.375 | 0.437 | 0.876 | 0.37 | 0.554 | 0.466 | 0.67 | 0.609 | 0.355
MPAVTYTPAMR [MEGF10_Y895] | 0.481 | 0.253 | 0.328 | 0.28 | 0.425 | 0.313 | 0.569 | 0.313 | 0.415 | 0.743 | 0.336 | 0.455 | 0.384 | 0.726 | 0.825 | 0.477
MSNFACVKREV [SCN1A_Y1694_Y1694C] | 0.768 | 0.49 | 0.45 | 0.486 | 0.592 | 0.437 | 0.911 | 0.449 | 0.51 | 0.674 | 0.383 | 0.506 | 0.446 | 0.88 | 0.612 | 0.514
MSRDIYSTDYY [NTRK1_Y676] | 1.83 | 6.24 | 8.84 | 4.81 | 3.6 | 1.5 | 0.933 | 4.75 | 3.99 | 1.01 | 9.04 | 0.733 | 5.12 | 1.07 | 0.752 | 0.729
MSRDVYSTDCF [NTRK2_Y702_Y706C_YF] | 1 | 0.754 | 0.675 | 0.64 | 0.803 | 0.516 | 1.2 | 2.71 | 1.14 | 0.855 | 3.02 | 0.874 | 2.4 | 0.894 | 0.683 | 0.757
MSRFIYSTDFF [NTRK1_Y676_D674Y_YF] | 0.887 | 2.29 | 2.11 | 1.47 | 1.27 | 0.887 | 1.31 | 4.15 | 2.49 | 1.04 | 8.57 | 0.664 | 4.05 | 1.14 | 1.05 | 0.806
MTRDIYRASYY [ALK_Y1278_A1274T] | 0.725 | 0.598 | 0.579 | 0.844 | 0.676 | 0.462 | 0.702 | 0.888 | 1.17 | 0.63 | 0.827 | 2.42 | 1.66 | 0.876 | 0.704 | 0.786
MWGSDYVQLSR [MAP3K4_Y582] | 1.67 | 9.41 | 6.29 | 7.1 | 4.02 | 0.383 | 0.765 | 0.685 | 1.12 | 5.71 | 0.561 | 0.53 | 1.08 | 0.646 | 0.521 | 0.583
NAGDYYDLYGG [PTPN11_Y63_T59A] | 5.5 | 16.3 | 15.9 | 19.3 | 18.9 | 2.53 | 1.55 | 7.13 | 6.95 | 4.53 | 3.96 | 1.13 | 6.14 | 0.89 | 0.595 | 0.633
NFATLHLKIFH [PDE6B_Y219_Y219H_YF] | 1.26 | 0.607 | 0.74 | 0.652 | 0.817 | 0.565 | 1.44 | 0.519 | 0.492 | 1.24 | 0.56 | 0.918 | 0.522 | 1.22 | 1.26 | 1.04
NFCPGYNNFFN [USH2A_Y467_R464C_YF] | 0.733 | 0.393 | 0.43 | 0.415 | 0.524 | 0.455 | 0.79 | 0.434 | 0.426 | 0.775 | 0.458 | 0.577 | 0.719 | 2.15 | 0.889 | 1.05
NGEDPYAGSTD [XRCC1_Y515] | 1.21 | 0.431 | 0.508 | 0.646 | 0.67 | 0.431 | 1.1 | 0.524 | 0.581 | 0.809 | 0.399 | 0.779 | 0.55 | 0.638 | 0.782 | 0.547
NGSFRYVIISQ [LRP1B_Y1988] | 1.12 | 0.599 | 0.581 | 0.603 | 0.71 | 0.513 | 1.25 | 0.528 | 0.657 | 0.958 | 0.448 | 0.727 | 0.422 | 1.17 | 5.12 | 2.17
NHYKIYNLYAE [PTEN_Y68_C71Y] | 0.749 | 0.455 | 0.641 | 0.461 | 0.541 | 0.481 | 0.723 | 2.14 | 2.54 | 0.664 | 0.461 | 0.56 | 2.43 | 0.862 | 0.698 | 0.675
NKEAIYSGYIR [SMCHD1_Y283] | 0.724 | 5.4 | 11.2 | 0.565 | 0.526 | 3.43 | 0.687 | 11.3 | 10.4 | 0.571 | 9.45 | 24.3 | 7.96 | 0.871 | 0.845 | 0.567
NKVQFYIPDMN [NCR1_Y84_K82Q] | 0.801 | 0.501 | 0.533 | 0.579 | 0.711 | 0.447 | 0.984 | 0.411 | 0.532 | 1.01 | 0.483 | 0.744 | 0.431 | 0.976 | 0.888 | 0.464
